Data from patent US20170081417A1.

Columns and labels:
[1] = biological target: human OX40 extracellular domain fused to the Fc portion of human IgG1 (hOX40:hFc) (human); assay: ELISA, OX40L-FLAG binding to coated hOX40:hFc
[2] = biological target: human OX40 (CD134), full length, expressed on cells (activated human T cells; EL4-OX40 and CHO-OX40 transfectants) (human) (UniProt P43489); assay: flow cytometry titration on activated human T cells
[3] = biological target: human OX40 extracellular domain fused to the Fc portion of human IgG1 (hOX40:hFc) (human); assay: ELISA, blocking of OX40L-FLAG binding to coated hOX40:hFc
[4] = biological target: human OX40 (CD134), full length, expressed on cells (activated human T cells; EL4-OX40 and CHO-OX40 transfectants) (human) (UniProt P43489); assay: flow cytometry, OX40L-FLAG binding to activated human T cells
[5] = biological target: human OX40 (CD134), full length, expressed on cells (activated human T cells; EL4-OX40 and CHO-OX40 transfectants) (human) (UniProt P43489); assay: flow cytometry, blocking of OX40L-FLAG binding to activated human T cells
[6] = biological target: recombinant human OX40:mFc fusion protein (Alexis Corporation) (human) (UniProt P43489); assay: cross-blocking ELISA, hOX40:mFc pre-incubated with L106; competitor: coated 112V8
[7] = biological target: recombinant human OX40:mFc fusion protein (Alexis Corporation) (human) (UniProt P43489); assay: cross-blocking ELISA, hOX40:mFc pre-incubated with L106; competitor: coated 112Y131

Chain of human OX40 (CD134), full length, expressed on cells (activated human T cells; EL4-OX40 and CHO-OX40 transfectants) (human) (P43489 29-277 limits assumed): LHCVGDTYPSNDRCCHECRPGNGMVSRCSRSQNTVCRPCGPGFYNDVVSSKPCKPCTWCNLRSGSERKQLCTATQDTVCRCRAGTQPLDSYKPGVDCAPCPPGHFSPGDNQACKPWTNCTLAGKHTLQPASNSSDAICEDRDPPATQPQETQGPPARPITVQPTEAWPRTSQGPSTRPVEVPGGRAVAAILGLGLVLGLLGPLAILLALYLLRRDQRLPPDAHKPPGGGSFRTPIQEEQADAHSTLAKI
Chain of human OX40 extracellular domain fused to the Fc portion of human IgG1 (hOX40:hFc) (human) (chain, as listed by the source limits assumed): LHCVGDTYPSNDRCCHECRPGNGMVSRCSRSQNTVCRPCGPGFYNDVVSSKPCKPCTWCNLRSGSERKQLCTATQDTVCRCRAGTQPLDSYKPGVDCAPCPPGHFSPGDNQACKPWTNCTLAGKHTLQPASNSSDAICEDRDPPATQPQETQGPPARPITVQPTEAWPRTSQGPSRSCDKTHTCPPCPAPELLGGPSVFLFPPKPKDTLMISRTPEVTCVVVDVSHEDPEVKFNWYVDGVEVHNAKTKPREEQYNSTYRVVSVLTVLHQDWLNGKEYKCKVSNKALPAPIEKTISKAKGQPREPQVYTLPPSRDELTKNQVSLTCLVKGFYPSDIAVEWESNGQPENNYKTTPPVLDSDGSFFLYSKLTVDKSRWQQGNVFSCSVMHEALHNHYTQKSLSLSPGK
Chain of recombinant human OX40:mFc fusion protein (Alexis Corporation) (human) (P43489 29-214): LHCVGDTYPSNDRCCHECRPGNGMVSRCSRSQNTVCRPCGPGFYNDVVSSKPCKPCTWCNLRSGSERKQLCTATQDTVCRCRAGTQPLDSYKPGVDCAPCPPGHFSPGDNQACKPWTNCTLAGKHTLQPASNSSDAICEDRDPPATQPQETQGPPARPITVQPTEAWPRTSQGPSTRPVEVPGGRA

percent inhibition of OX40L binding [1]: 95%
BMAX Geo Mean (geometric mean fluorescence) [2]: 52
Kd [2]: 1 nM
IC50 [3]: 0.982 µg/mL
percent inhibition of OX40L binding [4]: 60%
IC50 [5]: 60.9 µg/mL
percent reduction of binding [6]: 10%
percent reduction of binding [7]: 10%
Substance: mouse anti-human OX40 antibody L106 (Becton Dickinson, catalog number 340420)
